Assay results: FireProtDB (doi:10.1021/bi027116n)
“And” between values parts separate entries of the source, which are not always exact repeats. Equal entries are not always repeated.

Settings: Aquifex aeolicus (strain VF5), reversible: no, whole UniProt chain shown; for denaturant midpoint (higher = more stable): 20 °C, GdnHCl

B1: 2Fe-2S ferredoxin-5 wild type, P59799 (protein)
chain: MPKVIVANINAEFEGIENETIMQILYRNGIEIDSACGGHGQCTSCKVLIISGSENLYPAEFEEKDTLEENGMDPETERLSCQAKLNGKGDVVIYLP
denaturant midpoint (higher = more stable) (pH 4, Absorbance, citric acid-NaH2PO4): 3.2 M
denaturant midpoint (higher = more stable) (pH 4, Emission, citric acid-NaH2PO4): 3.2 M
denaturant midpoint (higher = more stable) (pH 5, Absorbance, Unknown): 6.7 M
denaturant midpoint (higher = more stable) (pH 5, CD, Unknown): 6.7 M
denaturant midpoint (higher = more stable) (pH 5, Emission, Unknown): 6.9 M
denaturant midpoint (higher = more stable) (pH 10, Absorbance, Glycine-OH): 7.5 M and 7.1 M
denaturant midpoint (higher = more stable) (pH 10, CD, Glycine-OH): 7 M
denaturant midpoint (higher = more stable) (pH 10, CD, glycine-OH): 6.6 M and 6.3 M and 6.1 M
denaturant midpoint (higher = more stable) (pH 10, Emission, Glycine-OH): 7 M
denaturant midpoint (higher = more stable) (pH 10, Emission, glycine-OH): 6.5 M and 6.1 M
Tm (pH 10, Thermal, Absorbance, Glycine-OH): 116 °C
denaturant midpoint (higher = more stable) (pH 11, CD, NaHCO3-NaOH): 6.2 M
denaturant midpoint (higher = more stable) (pH 11, Emission, NaHCO3-NaOH): 6.2 M
